Test results published in paper PMC3014896.

Columns and labels:
[1] = target: full-length form of human cytochrome b5 (human) (UniProt P00167)
[2] = target: HLMWb5 A59V mutant (human) (UniProt P00167)
[3] = target: HLMWb5 L51I mutant (human) (UniProt P00167)
[4] = target: HLMWb5 G67A mutant (human) (UniProt P00167)
[5] = target: HLMWb5 A59S mutant (human) (UniProt P00167)
[6] = target: HLMWb5 G67S mutant (human) (UniProt P00167)
[7] = target: full-length form of human cytochrome b5 (human) (UniProt P00167); remark: listed apart in the source
[8] = target: HLMWb5 A59V mutant (human) (UniProt P00167); remark: listed apart in the source
[9] = target: HLMWb5 L51I mutant (human) (UniProt P00167); remark: listed apart in the source
[10] = target: heme-binding soluble domain of human liver microsomal cytochrome b5 with an NH2-terminal 6xHis-tag extension (HLMWb5) (human) (UniProt P00167)
[11] = target: HLMWb5 G67A mutant (human) (UniProt P00167); remark: listed apart in the source
[12] = target: HLMWb5 A59S mutant (human) (UniProt P00167); remark: listed apart in the source
[13] = target: HLMWb5 G67S mutant (human) (UniProt P00167); remark: listed apart in the source

poly-L-lysine (peptide) gave a half-wave potential E1/2 (vs. SHE) by cyclic voltammetry, Au electrode with β-mercaptopropionic acid, 200 μM poly-L-lysine, with Triton X-100 [1] of -20.5 mV, a half-wave potential E1/2 (vs. SHE) by cyclic voltammetry, poly-L-lysine 50~300 μM; no dependency on the poly-L-lysine concentration observed (value at 200 μM) [2] of -29 mV and a half-wave potential E1/2 (vs. SHE) by cyclic voltammetry, poly-L-lysine 50~300 μM; no dependency on the poly-L-lysine concentration observed (value at 200 μM) [3] of -30.5 mV. For the same substance, the half-wave potential E1/2 (vs. SHE) by cyclic voltammetry, poly-L-lysine 50~300 μM; similar concentration dependency as the wild type, with a significant negative shift (value at 200 μM) [4] was -40.5 mV, the half-wave potential E1/2 (vs. SHE) by cyclic voltammetry, poly-L-lysine 50~300 μM; shifts positively and reaches a plateau at 200 μM (value at 200 μM) [5] was -31.5 mV and the half-wave potential E1/2 (vs. SHE) by cyclic voltammetry, poly-L-lysine 50~300 μM; similar concentration dependency as the wild type (value at 200 μM) [6] was -32 mV. The midpoint potential (vs. SHE) by spectroscopic redox titration with 200 μM poly-L-lysine, 0.5% Triton X-100 (-2.6 mV without poly-L-lysine) [7] was 8.7 mV, the midpoint potential (vs. SHE) by spectroscopic redox titration with 200 μM poly-L-lysine (-7.7 mV without poly-L-lysine) [8] was 11.7 mV and the midpoint potential (vs. SHE) by spectroscopic redox titration with 200 μM poly-L-lysine (-9.5 mV without poly-L-lysine) [9] was 10.5 mV. It also gave a midpoint potential (vs. SHE) by spectroscopic redox titration, 15 μM protein with 200 μM poly-L-lysine, pH 7.0, 25°C (-3.2 mV without poly-L-lysine) [10] of 16.5 mV, a midpoint potential (vs. SHE) by spectroscopic redox titration with 200 μM poly-L-lysine (-8.4 mV without poly-L-lysine) [11] of -2.7 mV and a midpoint potential (vs. SHE) by spectroscopic redox titration with 200 μM poly-L-lysine (-4.9 mV without poly-L-lysine) [12] of 9.6 mV. For the same substance, the midpoint potential (vs. SHE) by spectroscopic redox titration with 200 μM poly-L-lysine (-7.3 mV without poly-L-lysine) [13] was 14.2 mV.
